We go through 1 molecule from US20230272089A1 (SYNTHEKINE, published 2023).

This experiment has as its target T1, hIL2Rg ECD antigen (human, UniProt P31785 23-262).
T1 construct: Antigen of biopanning and PE-ELISA; also called extracellular domain of human IL2Rg; CD132 ECD
T1 sequence: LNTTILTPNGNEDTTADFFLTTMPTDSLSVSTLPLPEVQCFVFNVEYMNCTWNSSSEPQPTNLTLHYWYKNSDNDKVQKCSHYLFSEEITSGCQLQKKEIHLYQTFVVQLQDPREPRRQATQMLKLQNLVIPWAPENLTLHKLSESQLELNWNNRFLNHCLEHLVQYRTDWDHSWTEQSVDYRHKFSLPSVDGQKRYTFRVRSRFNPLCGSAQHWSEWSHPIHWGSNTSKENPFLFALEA
Description: periplasmic extract ELISA (PE-ELISA) of phage clones after biopanning.

B1: hIL2Rg_VHH-15 (VHH)
VHH: QVQLQESGGGLVQPGGSLRLSCAASGFTFSSAHMSWVRQAPGKGREWIASIYSGGGTFYADSVKGRFTISRDNAKNTLYLQLNSLKAEDTAMYYCATNRLHYYSDDDSLRGQGTQVTVSS
notes: Periplasmic extract of a phage clone, as in the PE-ELISA; not shown: HA/His tag of the pMECS phagemid
B1: the binding result is “binds”.
